For experiment [1], the target named is G-Actin (UniProt P68135).
In experiment [2] the target is F-Actin (UniProt P68135). As to the kind of experiment: co-sedimentation; G-Actin polymerized 2.5 h at 25°C in polymerization buffer (5 mM Tris pH 8.0, 0.2 mM CaCl2, 1 mM ATP, 0.5 mM DTT, 5 mM KCl, 2 mM MgCl2) with equal amounts (0.125 μg/μl) of Simiate or GST; 100,000 g for 1 h; supernatant and pellet by SDS-PAGE.
In experiment [3] the target is F-Actin (UniProt P68135). As to the kind of experiment: co-sedimentation; Actin pre-polymerized, sedimentated and then incubated with Simiate or the control protein; 100,000 g for 1 h; supernatant and pellet by SDS-PAGE.

In experiment [1], recombinant Simiate (natural protein) gave a decrease in amount of Actin polymerized after a period of 3 h (sedimentation assay), against Actin alone of 29%. For the same substance, the percent of the total Simiate content in the sediment in experiment [2] was 51.4%; in experiment [3], 50.8%.

Source of the values: publication PMC3986562.
